From publication PMC9482650, “Quantitative fragmentomics allow affinity mapping of interactomes” (Nature Communications, 2022)

How the values were obtained:
Experiment in all cases: holdup assay
Set-up in all cases: key: below the threshold = too weak to quantify, mostly under pKd 3.1 to 4
[1] = molecular target: AHNAK1, Q09666
[2] = molecular target: TJP1_3, Q07157
[3] = molecular target: ARHGEF12, Q9NZN5-2
[4] = molecular target: GRIP2_5, Q9C0E4
[5] = molecular target: T1, DFNB31_2, Q9P202
T1 sequence (Q9P202 274-371, limits assumed, looked up): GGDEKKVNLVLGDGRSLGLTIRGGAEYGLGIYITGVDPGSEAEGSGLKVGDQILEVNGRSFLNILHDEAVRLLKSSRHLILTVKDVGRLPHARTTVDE

[6] = molecular target: Inadl_2, Q8NI35
Sequence of Inadl_2, Q8NI35 (Q8NI35 238-335): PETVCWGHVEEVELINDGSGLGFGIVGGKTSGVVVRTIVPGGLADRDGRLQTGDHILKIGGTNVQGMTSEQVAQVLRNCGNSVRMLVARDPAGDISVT

[7] = molecular target: DLG1_2, Q12959
Sequence of DLG1_2, Q12959 (Q12959 314-412): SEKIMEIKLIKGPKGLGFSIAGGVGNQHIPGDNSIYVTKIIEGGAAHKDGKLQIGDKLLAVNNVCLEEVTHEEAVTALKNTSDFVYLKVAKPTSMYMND

[8] = molecular target: T2, MPDZ_5, O75970
T2 sequence (O75970 695-796, limits assumed, looked up): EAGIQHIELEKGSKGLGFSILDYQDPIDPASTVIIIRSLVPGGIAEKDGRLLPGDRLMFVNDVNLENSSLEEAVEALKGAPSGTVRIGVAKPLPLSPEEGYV

[9] = molecular target: T3, NHERF3_1, Q5T2W1
T3 sequence (Q5T2W1 4-100, limits assumed, looked up): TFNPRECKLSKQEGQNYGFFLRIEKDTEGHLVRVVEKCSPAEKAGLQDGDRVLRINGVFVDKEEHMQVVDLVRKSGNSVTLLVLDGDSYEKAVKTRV

[10] = molecular target: T4, SNTA1, Q13424
T4 sequence (Q13424 82-180, limits assumed, looked up): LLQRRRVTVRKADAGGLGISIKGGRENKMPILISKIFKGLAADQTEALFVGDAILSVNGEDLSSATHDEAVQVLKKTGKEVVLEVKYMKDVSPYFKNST

[11] = molecular target: T5, SNTG2, Q9NY99
T5 sequence (Q9NY99 68-166, limits assumed, looked up): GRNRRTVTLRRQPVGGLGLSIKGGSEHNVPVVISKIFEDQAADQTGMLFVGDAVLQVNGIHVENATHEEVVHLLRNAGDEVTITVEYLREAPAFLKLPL

[12] = molecular target: T6, PARD3B_1, Q8TEW8
T6 sequence (Q8TEW8 196-299, limits assumed, looked up): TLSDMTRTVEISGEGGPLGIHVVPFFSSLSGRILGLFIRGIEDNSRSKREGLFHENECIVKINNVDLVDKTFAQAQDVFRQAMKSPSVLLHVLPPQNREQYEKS

[13] = molecular target: T7, TIAM2, Q8IVF5
T7 sequence (Q8IVF5 885-986, limits assumed, looked up): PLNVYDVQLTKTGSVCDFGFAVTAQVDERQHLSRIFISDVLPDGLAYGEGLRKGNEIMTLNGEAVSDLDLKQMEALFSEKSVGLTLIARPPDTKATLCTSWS

[14] = molecular target: T8, APBA1_1, Q02410
T8 sequence (Q02410 651-752, limits assumed, looked up): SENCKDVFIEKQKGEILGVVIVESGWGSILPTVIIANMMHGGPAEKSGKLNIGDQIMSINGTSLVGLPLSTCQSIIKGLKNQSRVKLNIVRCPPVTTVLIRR

[15] = molecular target: SNX27, Q96L92
[16] = molecular target: PICK1, Q9NRD5
Sequence of PICK1, Q9NRD5 (Q9NRD5 17-115): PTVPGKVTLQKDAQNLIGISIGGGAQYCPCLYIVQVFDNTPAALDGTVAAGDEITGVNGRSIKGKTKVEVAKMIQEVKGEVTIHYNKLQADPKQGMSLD

[17] = molecular target: DLG2_3, Q15700
[18] = molecular target: DLG4_3, P78352
Sequence of DLG4_3, P78352 (P78352 306-403): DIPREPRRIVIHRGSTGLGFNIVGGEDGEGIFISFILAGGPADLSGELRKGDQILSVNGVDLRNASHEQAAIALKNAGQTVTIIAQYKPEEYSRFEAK

[19] = molecular target: Inadl_3, Q8NI35
Sequence of Inadl_3, Q8NI35 (Q8NI35 359-469): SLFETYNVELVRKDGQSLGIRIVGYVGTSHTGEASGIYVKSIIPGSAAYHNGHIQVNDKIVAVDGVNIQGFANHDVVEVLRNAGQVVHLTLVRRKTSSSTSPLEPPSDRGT

[20] = molecular target: GORASP2, Q9H8Y8
[21] = molecular target: GRID2IP_2, A4D2P6
Sequence of GRID2IP_2, A4D2P6 (A4D2P6 272-370): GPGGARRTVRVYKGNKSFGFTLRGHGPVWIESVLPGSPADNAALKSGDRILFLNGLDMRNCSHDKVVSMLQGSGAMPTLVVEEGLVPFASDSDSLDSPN

[22] = molecular target: T9, SHANK1, Q9Y566
T9 sequence (Q9Y566 658-767, limits assumed, looked up): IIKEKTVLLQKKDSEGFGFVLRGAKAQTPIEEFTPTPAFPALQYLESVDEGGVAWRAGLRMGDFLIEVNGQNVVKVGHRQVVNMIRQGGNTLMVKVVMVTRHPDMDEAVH

[23] = molecular target: SCRIB_2, Q14160
Sequence of SCRIB_2, Q14160 (Q14160 857-960): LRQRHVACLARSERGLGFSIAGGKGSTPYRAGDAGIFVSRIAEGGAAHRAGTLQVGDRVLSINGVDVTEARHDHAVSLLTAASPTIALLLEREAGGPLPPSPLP

[24] = molecular target: NHERF4_1, Q86UT5-2
Sequence of NHERF4_1, Q86UT5-2 (Q86UT5 other isoform, or with tags, fused parts or gaps): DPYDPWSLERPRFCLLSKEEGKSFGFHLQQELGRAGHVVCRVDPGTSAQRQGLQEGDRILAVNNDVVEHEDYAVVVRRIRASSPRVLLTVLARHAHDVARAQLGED

[25] = molecular target: DLG5_1, Q8TDM6
Sequence of DLG5_1, Q8TDM6 (Q8TDM6 617-713): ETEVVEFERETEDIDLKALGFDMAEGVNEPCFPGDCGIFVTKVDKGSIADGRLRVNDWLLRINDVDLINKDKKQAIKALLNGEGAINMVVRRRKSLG

[26] = molecular target: GRIP2_3, Q9C0E4
Sequence of GRIP2_3, Q9C0E4 (Q9C0E4 238-339): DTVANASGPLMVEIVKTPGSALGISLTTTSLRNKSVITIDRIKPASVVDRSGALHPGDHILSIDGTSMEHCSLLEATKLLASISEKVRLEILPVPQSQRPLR

[27] = molecular target: IL16_3, Q14005
Sequence of IL16_3, Q14005 (Q14005 1107-1207): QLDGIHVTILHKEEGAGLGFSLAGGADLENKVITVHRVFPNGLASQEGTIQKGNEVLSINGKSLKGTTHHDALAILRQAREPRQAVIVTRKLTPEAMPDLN

[28] = molecular target: DLG4_2, P78352
Sequence of DLG4_2, P78352 (P78352 155-259): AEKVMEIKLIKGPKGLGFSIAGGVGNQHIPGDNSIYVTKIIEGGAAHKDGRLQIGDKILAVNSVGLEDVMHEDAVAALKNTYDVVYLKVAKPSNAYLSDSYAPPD

[29] = molecular target: GOPC, Q9HD26
[30] = plain residues with an end cap or a label only (N-terminal biotin on a linker: ahx)
[31] = plain residues with an end cap or a label only (N-terminal biotin on a linker: ttds)

Sequence of TJP1_3, Q07157 (Q07157 416-512): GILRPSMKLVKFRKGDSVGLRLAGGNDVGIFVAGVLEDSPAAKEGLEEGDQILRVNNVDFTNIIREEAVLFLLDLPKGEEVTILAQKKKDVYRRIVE
Sequence of GRIP2_5, Q9C0E4 (Q9C0E4 544-642): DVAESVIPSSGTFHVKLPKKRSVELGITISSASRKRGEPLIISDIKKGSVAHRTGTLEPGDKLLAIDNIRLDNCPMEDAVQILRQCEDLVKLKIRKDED
Sequence of ARHGEF12, Q9NZN5-2 (Q9NZN5 other isoform, or with tags, fused parts or gaps): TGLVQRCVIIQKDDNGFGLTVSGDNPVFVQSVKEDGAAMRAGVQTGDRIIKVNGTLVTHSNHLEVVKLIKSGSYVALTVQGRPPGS
Sequence of AHNAK1, Q09666 (Q09666 4-100): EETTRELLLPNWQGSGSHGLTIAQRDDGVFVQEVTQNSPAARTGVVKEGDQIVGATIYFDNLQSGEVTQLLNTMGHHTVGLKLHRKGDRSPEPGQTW

Binder: YNSFLSVTTV [PDZRN3, Q9UPQ7]
- pKd [1, 30]: 3.53
- pKd [2, 30]: below the threshold
- pKd [3, 30]: 4.25
- pKd [4, 30]: below the threshold
- pKd [5, 30]: below the threshold
- pKd [6, 30]: below the threshold
- pKd [7, 30]: 4.19
- pKd [8, 30]: below the threshold
- pKd [9, 30]: below the threshold
- pKd [10, 30]: 3.76
- pKd [11, 30]: 3.81
- pKd [12, 30]: below the threshold
- pKd [13, 30]: below the threshold
- pKd [14, 30]: below the threshold
- pKd [15, 30]: 4.49
- pKd [16, 30]: below the threshold
- pKd [17, 30]: 4.06
- pKd [18, 30]: below the threshold
- pKd [19, 30]: 3.76
- pKd [20, 30]: 4.33
- pKd [21, 30]: 3.57
- pKd [22, 30]: 3.66
- pKd [23, 30]: 3.69
- pKd [24, 30]: below the threshold
- pKd [25, 30]: below the threshold
- pKd [26, 30]: below the threshold
- pKd [27, 30]: below the threshold
- pKd [28, 30]: 4.15
- pKd [29, 30]: 4.1

Binder: PKMKLNETSF [SHKBP1, Q8TBC3]
- pKd [1, 30]: below the threshold
- pKd [2, 30]: below the threshold
- pKd [3, 30]: below the threshold
- pKd [4, 30]: below the threshold
- pKd [5, 30]: below the threshold
- pKd [6, 30]: below the threshold
- pKd [7, 30]: below the threshold
- pKd [8, 30]: below the threshold
- pKd [9, 30]: 4.55
- pKd [10, 30]: below the threshold
- pKd [11, 30]: below the threshold
- pKd [12, 30]: below the threshold
- pKd [13, 30]: below the threshold
- pKd [14, 30]: below the threshold
- pKd [15, 30]: 5.54
- pKd [16, 30]: below the threshold
- pKd [17, 30]: below the threshold
- pKd [18, 30]: below the threshold
- pKd [19, 30]: below the threshold
- pKd [20, 30]: below the threshold
- pKd [21, 30]: below the threshold
- pKd [22, 30]: 4.21
- pKd [23, 30]: below the threshold
- pKd [24, 30]: 3.73
- pKd [25, 30]: below the threshold
- pKd [26, 30]: below the threshold
- pKd [27, 30]: below the threshold
- pKd [28, 30]: below the threshold
- pKd [29, 30]: below the threshold

Binder: PFRSRSPSEV [GPR6, P46095]
- pKd [1, 31]: below the threshold
- pKd [2, 31]: below the threshold
- pKd [3, 31]: below the threshold
- pKd [4, 31]: below the threshold
- pKd [5, 31]: below the threshold
- pKd [6, 31]: below the threshold
- pKd [7, 31]: 3.87
- pKd [8, 31]: below the threshold
- pKd [9, 31]: below the threshold
- pKd [10, 31]: below the threshold
- pKd [11, 31]: below the threshold
- pKd [12, 31]: 3.8
- pKd [13, 31]: below the threshold
- pKd [14, 31]: below the threshold
- pKd [15, 31]: below the threshold
- pKd [16, 31]: below the threshold
- pKd [17, 31]: 3.68
- pKd [18, 31]: below the threshold
- pKd [19, 31]: below the threshold
- pKd [20, 31]: 3.81
- pKd [21, 31]: below the threshold
- pKd [22, 31]: below the threshold
- pKd [23, 31]: below the threshold
- pKd [24, 31]: below the threshold
- pKd [25, 31]: below the threshold
- pKd [26, 31]: below the threshold
- pKd [27, 31]: below the threshold
- pKd [28, 31]: 3.75
- pKd [29, 31]: below the threshold

Binder: SHSSKGETAV [FZD7, O75084]
- pKd [1, 31]: below the threshold
- pKd [2, 31]: below the threshold
- pKd [3, 31]: 3.97
- pKd [4, 31]: below the threshold
- pKd [5, 31]: below the threshold
- pKd [6, 31]: below the threshold
- pKd [7, 31]: 4.78
- pKd [8, 31]: below the threshold
- pKd [9, 31]: 4.22
- pKd [10, 31]: 4.34
- pKd [11, 31]: below the threshold
- pKd [12, 31]: 3.52
- pKd [13, 31]: below the threshold
- pKd [14, 31]: below the threshold
- pKd [15, 31]: 4.8
- pKd [16, 31]: below the threshold
- pKd [17, 31]: 4.32
- pKd [18, 31]: 4.02
- pKd [19, 31]: below the threshold
- pKd [20, 31]: 3.66
- pKd [21, 31]: below the threshold
- pKd [22, 31]: below the threshold
- pKd [23, 31]: 4.58
- pKd [24, 31]: below the threshold
- pKd [25, 31]: below the threshold
- pKd [26, 31]: 3.55
- pKd [27, 31]: below the threshold
- pKd [28, 31]: 4.69
- pKd [29, 31]: below the threshold
